We go through 2 molecules from PMC10315710, “Diacylglycerol kinase ζ interacts with sphingomyelin synthase 1 and sphingomyelin synthase‐related protein via different regions” (FEBS Open Bio, 2023).

This experiment deals with T1, Twin‐Strep (TS)‐tagged DGKζ (TS‐DGKζ) (human, UniProt Q13574 1-928).
T1 construct: full-length (FL) DGKζ (DGKζ1, 104 kDa), human; no cleavage is reported and the protein is detected by anti-TS; also called purified DGKζ; source: HEK293 cells, purified (Strep-Tactin XT beads, without detergents); not shown: Twin-Strep, N-terminal, kept
T1 sequence (Q13574 whole entry): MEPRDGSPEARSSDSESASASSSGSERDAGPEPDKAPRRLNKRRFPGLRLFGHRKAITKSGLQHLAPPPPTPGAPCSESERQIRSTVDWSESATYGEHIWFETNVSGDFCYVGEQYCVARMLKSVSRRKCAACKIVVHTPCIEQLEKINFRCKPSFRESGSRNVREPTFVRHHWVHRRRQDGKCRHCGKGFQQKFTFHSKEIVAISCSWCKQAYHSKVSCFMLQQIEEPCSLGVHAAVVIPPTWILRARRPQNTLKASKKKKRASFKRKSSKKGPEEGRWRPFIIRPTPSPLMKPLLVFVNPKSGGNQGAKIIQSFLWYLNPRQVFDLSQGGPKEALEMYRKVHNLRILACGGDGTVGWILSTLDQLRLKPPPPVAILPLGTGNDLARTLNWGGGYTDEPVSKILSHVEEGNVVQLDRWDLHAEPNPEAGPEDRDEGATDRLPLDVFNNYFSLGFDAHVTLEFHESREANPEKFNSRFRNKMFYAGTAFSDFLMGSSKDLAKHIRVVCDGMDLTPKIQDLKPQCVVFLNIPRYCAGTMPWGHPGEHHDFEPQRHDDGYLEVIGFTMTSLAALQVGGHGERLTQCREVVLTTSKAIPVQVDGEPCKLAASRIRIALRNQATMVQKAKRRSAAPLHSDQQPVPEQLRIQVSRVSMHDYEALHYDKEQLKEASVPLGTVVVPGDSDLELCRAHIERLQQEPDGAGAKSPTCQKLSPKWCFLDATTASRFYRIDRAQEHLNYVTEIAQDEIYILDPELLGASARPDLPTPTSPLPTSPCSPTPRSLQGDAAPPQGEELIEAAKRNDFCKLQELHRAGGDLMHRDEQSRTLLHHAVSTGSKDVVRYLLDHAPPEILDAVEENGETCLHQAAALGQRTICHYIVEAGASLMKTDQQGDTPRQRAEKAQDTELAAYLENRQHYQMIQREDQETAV
The experiment in a line: pull-down; purified GST-SMS1-CT or GST-SMSr-NT on glutathione-Sepharose beads, purified Twin-Strep-tagged DGKζ added for 2 h at 4 °C; 20 mM Tris-HCl pH 7.5, 150 mM NaCl, 1 mM EDTA, 0.1% Triton X-100; western blot with anti-GST and anti-TS. Conditions: both partners purified.

B1: GST‐SMSr‐NT (domain or fragment, human, UniProt Q96LT4 1-151, looked up)
chain: MAGPNQLCIRRWTTKHVAVWLKDEGFFEYVDILCNKHRLDGITLLTLTEYDLRSPPLEIKVLGDIKRLMLSVRKLQKIHIDVLEEMGYNSDSPMGSMTPFISALQSTDWLCNGELSHDCDGPITDLNSDQYQYMNGKNKHSVRRLDPEYWK
notes: SMSr, N-terminal cytosolic region (contains SAMD); SMSr-NT is defined as aa 1–151; also called GST-fused SMSr‐NT; GST-tagged SMSr‐NT; source: bacterially expressed, purified (glutathione-Sepharose beads); not shown: GST, N-terminal, kept
Take B1: the binding result is listed as “binds”.

B2: GST‐SMS1‐CT (domain or fragment, human, UniProt Q86VZ5 348-413, looked up)
chain: HTMANQQVLKEASQMNLLARVWWYRPFQYFEKNVQGIVPRSYHWPFPWPVVHLSRQVKYSRLVNDT
notes: SMS1, C-terminal cytosolic region; SMS1-CT is defined as aa 348–413; also called GST-fused SMS1‐CT; GST-tagged SMS1‐CT; source: bacterially expressed, purified (glutathione-Sepharose beads); not shown: GST, N-terminal, kept
Consider B2, for which the binding result was “binds”.
